The experiment addresses GST-Dip1 (S. pombe) (S. pombe) (UniProt O74771). The experiment is described as follows: pull-down.
Chain of UniProt O74771 (O74771 whole entry): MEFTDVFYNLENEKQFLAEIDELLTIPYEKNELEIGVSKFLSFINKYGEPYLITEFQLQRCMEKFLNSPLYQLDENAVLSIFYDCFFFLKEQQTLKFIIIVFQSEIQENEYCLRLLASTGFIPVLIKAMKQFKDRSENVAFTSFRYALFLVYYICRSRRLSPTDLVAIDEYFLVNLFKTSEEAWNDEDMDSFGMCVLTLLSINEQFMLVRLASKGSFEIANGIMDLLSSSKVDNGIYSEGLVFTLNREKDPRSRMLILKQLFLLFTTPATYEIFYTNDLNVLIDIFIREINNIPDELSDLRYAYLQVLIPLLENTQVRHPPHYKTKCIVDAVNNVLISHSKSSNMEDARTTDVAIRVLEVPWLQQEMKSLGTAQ

Substance “S. pombe Arp2/3 complex (from UniProt Q9UUJ1 1-390)” returned a percent pulled down of 20%.

The values above are taken from PMC3930447.
